Where a chain is given by its changes, count along the chain named. Names and notes keep the numbering of the source.
B1: LB-Rb (379-928) A488V (protein, part only; not given: Large BiT luciferase tag, human, UniProt P06400 379-928, looked up, part only)
chain, part: MNTIQQLMMILNSASDQPSENLISYFNNCTVNPKESILKRVKDIGYIFKEKFAKAVGQGCVEIGSQRYKLGVRLYYRVMESMLKSEEERLSIQNFSKLLNDNIFHMSLLVCALEVVMATYSRSTSQNLDSGTDLSFPWILNVLNLKAFDFYKVIESFIKAEGNLTREMIKHLERCEHRIMESLAWLSDSPLFDLIKQSKDREGPTDHLESACPLNLPLQNNHTAADMYLSPVRSPKKKGSTTRVNSTANAETQATSAFQTQKPLKSTSLSLFYKKVYRLAYLRLNTLCERLLSEHPELEHIIWTLFQHTLQNEYELMRDRHLDQIMMCSMYGICKVKNIDLKFKIIVTAYKDLPHAVQETFKRVLIKEEEYDSIIVFYNSVFMQRLKTNILQYASTRPPTLSPIPHIPRSPYKFPSSPLRIPGGNIYISPLKSPYKISEGLPTPTKMTPRSRILVSIGESFGTSEKFQKINQMVCNSDRVLKRSAEGSNPPKPLKKLRFDIEGSDEADGSKHLPGESKFQQKLAEMTSTRTRMQKQKMNDSMDTSNKEEK
B2: LB-Rb (379-928) V654M (protein, part only; not given: Large BiT luciferase tag, human, UniProt P06400 379-928, looked up, part only)
chain, part: B1 chain, part with V110A, V276M
B3: LB-Rb (379-928) R798Q (protein, part only; not given: Large BiT luciferase tag, human, UniProt P06400 379-928, looked up, part only)
chain, part: B1 chain, part with V110A, R420Q
B4: LB-Rb (379-928) C706F (protein, part only; not given: Large BiT luciferase tag, human, UniProt P06400 379-928, looked up, part only)
chain, part: B1 chain, part with V110A, C328F
B5: LB-Rb (379-928) I724N (protein, part only; not given: Large BiT luciferase tag, human, UniProt P06400 379-928, looked up, part only)
chain, part: B1 chain, part with V110A, I346N
B6: LB-Rb (379-928) R661W (protein, part only; not given: Large BiT luciferase tag, human, UniProt P06400 379-928, looked up, part only)
chain, part: B1 chain, part with V110A, R283W
B7: LB-Rb (379-928) L665R (protein, part only; not given: Large BiT luciferase tag, human, UniProt P06400 379-928, looked up, part only)
chain, part: B1 chain, part with V110A, L287R
B8: LB-Rb (379-928) E440K (protein, part only; not given: Large BiT luciferase tag, human, UniProt P06400 379-928, looked up, part only)
chain, part: B1 chain, part with E62K, V110A
B9: LB-Rb (379-928) R698W (protein, part only; not given: Large BiT luciferase tag, human, UniProt P06400 379-928, looked up, part only)
chain, part: B1 chain, part with V110A, R320W
B10: LB-Rb (379-928) R656W (protein, part only; not given: Large BiT luciferase tag, human, UniProt P06400 379-928, looked up, part only)
chain, part: B1 chain, part with V110A, R278W
B11: LB-Rb (379-928) R621S (protein, part only; not given: Large BiT luciferase tag, human, UniProt P06400 379-928, looked up, part only)
chain, part: B1 chain, part with V110A, R243S

Biological target: E2F1-SB, DP1 (E2F1 fragment with C-terminal Small BiT, co-expressed with Dp-1) (human) (UniProt Q01094)
Test: NanoBiT split-luciferase complementation, cells stably expressing E2F1-SB and Dp-1; relative to WT LB-Rb

E2F1-SB, DP1 (E2F1 fragment with C-terminal Small BiT, co-expressed with Dp-1) (human), sequence (Q01094 whole entry, chain 1 of 2, the tested form may be a part): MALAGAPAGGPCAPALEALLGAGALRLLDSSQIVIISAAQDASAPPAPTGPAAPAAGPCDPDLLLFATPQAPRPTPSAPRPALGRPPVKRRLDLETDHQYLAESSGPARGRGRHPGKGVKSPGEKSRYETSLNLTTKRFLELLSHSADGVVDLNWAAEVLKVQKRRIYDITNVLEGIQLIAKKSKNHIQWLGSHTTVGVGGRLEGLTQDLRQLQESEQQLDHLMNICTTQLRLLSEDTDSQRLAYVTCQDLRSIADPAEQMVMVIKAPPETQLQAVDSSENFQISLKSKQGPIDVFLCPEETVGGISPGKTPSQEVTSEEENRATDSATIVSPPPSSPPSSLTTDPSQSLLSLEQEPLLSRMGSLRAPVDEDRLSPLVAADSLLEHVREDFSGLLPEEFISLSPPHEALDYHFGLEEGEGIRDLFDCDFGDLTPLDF
E2F1-SB, DP1 (E2F1 fragment with C-terminal Small BiT, co-expressed with Dp-1) (human), sequence (Q14186 whole entry, chain 2 of 2, further chain, the tested form may be a part): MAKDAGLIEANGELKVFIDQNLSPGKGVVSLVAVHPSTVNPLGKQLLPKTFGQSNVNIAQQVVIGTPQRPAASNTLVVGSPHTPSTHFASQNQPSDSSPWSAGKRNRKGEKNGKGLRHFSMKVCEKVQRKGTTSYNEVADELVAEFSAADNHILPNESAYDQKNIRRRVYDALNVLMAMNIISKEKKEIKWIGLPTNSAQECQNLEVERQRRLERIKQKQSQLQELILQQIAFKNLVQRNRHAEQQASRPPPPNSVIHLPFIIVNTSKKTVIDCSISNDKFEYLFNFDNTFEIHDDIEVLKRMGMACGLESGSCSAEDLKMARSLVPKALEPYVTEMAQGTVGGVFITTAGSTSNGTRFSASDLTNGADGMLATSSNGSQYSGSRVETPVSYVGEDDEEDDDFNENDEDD

Compared with “LB-Rb (379-928) R661del1, out-of-frame deletion mutant (from UniProt P06400 379-660)”, “LB-Rb (379-928) R798W (from UniProt P06400 379-928)” is higher in % (/wt) luciferase activity: 0.8 % (/wt) for the first, 120 % (/wt) for the second.

First: LB-Rb (379-928) I703del35, in-frame deletion mutant (from UniProt P06400 379-702; P06400 738-928)
Second: B1
The % (/wt) luciferase activity of the first is lower: 8.6 % (/wt) for the first, 51 % (/wt) for the second.

First: B2
Second: B3
The % (/wt) luciferase activity of the first is higher: 132 % (/wt) for the first, 92 % (/wt) for the second.

Compared with B4, B5 is higher in % (/wt) luciferase activity: 5.5 % (/wt) for the first, 7.4 % (/wt) for the second.

Going from B6 to B7, the % (/wt) luciferase activity falls from 5.2 % (/wt) to 5 % (/wt).

First: B8
Second: B9
The % (/wt) luciferase activity of the first is higher: 47 % (/wt) for the first, 6.4 % (/wt) for the second.

Going from B10 to B11, the % (/wt) luciferase activity rises from 79 % (/wt) to 124 % (/wt).

From US20220073935A1
